According to the supplement of paper PMC11316812:
± gives the standard deviation of the averaged measurements.

Assays:
hTERT-HMEC = experiment: percentage of EdU-negative (G0-arrested) nuclei per well, 72 h; higher = more G0 arrest; conditions: reference: sequence is the full UniProt precursor, the tested protein was the secreted form or ectodomain
MCF7 = experiment: as above; conditions: reference: sequence is the full UniProt precursor, the tested protein was the secreted form or ectodomain
[1] = protein concentration 0.0114286 µM
[2] = protein concentration 0.114286 µM
[3] = protein concentration 0.0357143 µM
[4] = protein concentration 0.357143 µM
[5] = protein concentration 0.0225 µM
[6] = protein concentration 0.01975 µM
[7] = protein concentration 0.1975 µM
[8] = protein concentration 0.02625 µM
[9] = protein concentration 0.2625 µM
[10] = protein concentration 0.0257143 µM
[11] = protein concentration 0.257143 µM
[12] = protein concentration 0.01025 µM
[13] = protein concentration 0.1025 µM
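Also: secreted proteins added to cultured cells, EdU pulse at the end, nuclei found by Hoechst imaging, EdU status from nuclear versus surrounding ring intensity ratio, PBS as neutral control.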

H7BXV5 was tested, and the “percentage of EdU-negative” value (hTERT-HMEC; [1]) was 4.71 ± 0.48%, the “percentage of EdU-negative” value (hTERT-HMEC; [2]) was 7.28 ± 0.91% and the “percentage of EdU-negative” value (MCF7; [1]) was 23 ± 0.76%. For the same substance, the “percentage of EdU-negative” value (MCF7; [2]) was 23.83 ± 0.21%.

For “MAAAAATKILLCLPLLLLLSGWSRAGRADPHSLCYDITVIPKFRPGPRWCAVQGQVDEKTFLHYDCGNKTVTPVSPLGKKLNVTTAWKAQNPVLREVVDILTEQLRDIQLENYTPKEPLTLQARMSCEQKAEGHSSGSWQFSFDGQIFLLFDSEKRMWTTVHPGARKMKEKWENDKVVAMSFHYFSMGDCIGWLEDFLMGMDSTLEPSAGAPLAMSSGTTQLRATATTLILCCLLIILPCFILPGI [Q9BZM5]”, the “percentage of EdU-negative” value (hTERT-HMEC; [3]) was 4.46 ± 0.35%, the “percentage of EdU-negative” value (hTERT-HMEC; [4]) was 5.89 ± 0.34% and the “percentage of EdU-negative” value (MCF7; [3]) was 22.2 ± 0.6%. The “percentage of EdU-negative” value (MCF7; [4]) was 25.5 ± 0.78%.

With “MAAAAMAAAAGGGAGAARSLSRFRGCLAGALLGDCVGSFYEAHDTVDLTSVLRHVQSLEPDPGTPGSERTEALYYTDDTAMARALVQSLLAKEAFDEVDMAHRFAQEYKKDPDRGYGAGVVTVFKKLLNPKCRDVFEPARAQFNGKGSYGNGGAMRVAGISLAYSSVQDVQKFARLSAQLTHASSLGYNGAILQALAVHLALQGESSSEHFLKQLLGHMEDLEGDAQSVLDARELGMEERPYSSRLKKIGELLDQASVTREEVVSELGNGIAAFESVPTAIYCFLRCMEPDPEIPSAFNSLQRTLIYSISLGGDTDTIATMAGAIAGAYYGMDQVPESWQQSCEGYEETDILAQSLHRVFQKS [Q9NX46]” the “percentage of EdU-negative” value (hTERT-HMEC; [5]) was 4.73 ± 1.1%, the “percentage of EdU-negative” value (hTERT-HMEC; protein concentration 0.225 µM) was 7.08 ± 0.11% and the “percentage of EdU-negative” value (MCF7; [5]) was 24.5 ± 2.2%. The “percentage of EdU-negative” value (MCF7; protein concentration 0.225 µM) was 29.1 ± 3.5%.

With “MAAAASPAFLLCLPLLHLLSGWSRAGWVDTHCLCYDFIITPKSRPEPQWCEVQGLVDERPFLHYDCVNHKAKAFASLGKKVNVTKTWEEQTETLRDVVDFLKGQLLDIQVENLIPIEPLTLQARMSCEHEAHGHGRGSWQFLFNGQKFLLFDSNNRKWTALHPGAKKMTEKWEKNRDVTMFFQKISLGDCKMWLEEFLMYWEQMLDPTKPPSLAPGTTQPKAMATTLSPWSLLIIFLCFILAGR [Q9BZM6]” the “percentage of EdU-negative” value (hTERT-HMEC; [6]) was 4.75 ± 0.89%, the “percentage of EdU-negative” value (hTERT-HMEC; [7]) was 6.21 ± 1.1% and the “percentage of EdU-negative” value (MCF7; [6]) was 24.2 ± 1.6%. For the same substance, the “percentage of EdU-negative” value (MCF7; [7]) was 25.4 ± 1.1%.

“MAAAASPAILPRLAILPYLLFDWSGTGRADAHSLWYNFTIIHLPRHGQQWCEVQSQVDQKNFLSYDCGSDKVLSMGHLEEQLYATDAWGKQLEMLREVGQRLRLELADTELEDFTPSGPLTLQVRMSCECEADGYIRGSWQFSFDGRKFLLFDSNNRKWTVVHAGARRMKEKWEKDSGLTTFFKMVSMRDCKSWLRDFLMHRKKRLEPTAPPTMAPGLAQPKAIATTLSPWSFLIILCFILPGI [Q9BZM4]” was tested, and the “percentage of EdU-negative” value (hTERT-HMEC; [8]) was 5.34 ± 0.19%, the “percentage of EdU-negative” value (hTERT-HMEC; [9]) was 4.8 ± 0.37% and the “percentage of EdU-negative” value (MCF7; [8]) was 25.38 ± 0.21%. The “percentage of EdU-negative” value (MCF7; [9]) was 27.9 ± 1.3%.

With “MAAALFVLLGFALLGTHGASGAAGFVQAPLSQQRWVGGSVELHCEAVGSPVPEIQWWFEGQGPNDTCSQLWDGARLDRVHIHATYHQHAASTISIDTLVEEDTGTYECRASNDPDRNHLTRAPRVKWVRAQAVVLVLEPGTVFTTVEDLGSKILLTCSLNDSATEVTGHRWLKGGVVLKEDALPGQKTEFKVDSDDQWGEYSCVFLPEPMGTANIQLHGPPRVKAVKSSEHINEGETAMLVCKSESVPPVTDWAWYKITDSEDKALMNGSESRFFVSSSQGRSELHIENLNMEADPGQYRCNGTSSKGSDQAIITLRVRSHLAALWPFLGIVAEVLVLVTIIFIYEKRRKPEDVLDDDDAGSAPLKSSGQHQNDKGKNVRQRNSS” the “percentage of EdU-negative” value (hTERT-HMEC; [5]) was 5.59 ± 0.91%, the “percentage of EdU-negative” value (hTERT-HMEC; protein concentration 0.225 µM) was 5.94 ± 1.8% and the “percentage of EdU-negative” value (MCF7; [5]) was 22.7 ± 2.4%. For the same substance, the “percentage of EdU-negative” value (MCF7; protein concentration 0.225 µM) was 25.2 ± 1.3%.

“MAAARLCLSLLLLSTCVALLLQPLLGAQGAPLEPVYPGDNATPEQMAQYAADLRRYINMLTRPRYGKRHKEDTLAFSEWGSPHAAVPRELSPLDL” was tested, and the “percentage of EdU-negative” value (hTERT-HMEC; [10]) was 5.37 ± 1.1%, the “percentage of EdU-negative” value (hTERT-HMEC; [11]) was 5.93 ± 0.18% and the “percentage of EdU-negative” value (MCF7; [10]) was 20.5 ± 1.5%. The “percentage of EdU-negative” value (MCF7; [11]) was 23.4 ± 3.6%.

“MAAATGPSFWLGNETLKVPLALFALNRQRLCERLRKNPAVQAGSIVVLQGGEETQRYCTDTGVLFRQESFFHWAFGVTEPGCYGVIDVDTGKSTLFVPRLPASHATWMGKIHSKEHFKEKYAVDDVQYVDEIASVLTSQKPSVLLTLRGVNTDSGSVCREASFDGISKFEVNNTILHPEIVECRVFKTDMELEVLRYTNKISSEAHREVMKAVKVGMKEYELESLFEHYCYSRGGMRHSSYTCICGSGENSAVLHYGHAGAPNDRTIQNGDMCLFDMGGEYYCFASDITCSFPANGKFTADQKAVYEAVLRSSRAVMGAMKPGVWWPDMHRLADRIHLEELAHMGILSGSVDAMVQAHLGAVFMPHGLGHFLGIDVHDVGGYPEGVERIDEPGLRSLRTARHLQPGMVLTVEPGIYFIDHLLDEALADPARASFLNREVLQRFRGFGGVRIEEDVVVTDSGIELLTCVPRTVEEIEACMAGCDKAFTPFSGPK” was tested, and the “percentage of EdU-negative” value (hTERT-HMEC; [12]) was 5.01 ± 0.5%, the “percentage of EdU-negative” value (hTERT-HMEC; [13]) was 4.28 ± 0.51% and the “percentage of EdU-negative” value (MCF7; [12]) was 26 ± 1%. The “percentage of EdU-negative” value (MCF7; [13]) was 27.3 ± 1.4%.

With “MAAAVVLAAGLRAARRAVAATGVRGGQVRGAAGVTDGNEVAKAQQATPGGAAPTIFSRILDKSLPADILYEDQQCLVFRDVAPQAPVHFLVIPKKPIPRISQAEEEDQQLLGHLLLVAKQTAKAEGLGDGYRLVINDGKLGAQSVYHLHIHVLGGRQLQWPPG [Q9BX68]” the “percentage of EdU-negative” value (hTERT-HMEC; [5]) was 4.56 ± 0.51%, the “percentage of EdU-negative” value (hTERT-HMEC; protein concentration 0.225 µM) was 5.01 ± 0.41% and the “percentage of EdU-negative” value (MCF7; [5]) was 24.7 ± 1.1%. For the same substance, the “percentage of EdU-negative” value (MCF7; protein concentration 0.225 µM) was 26.8 ± 0.95%.
